Numbering of substitutions follows the chain as printed.
Tests used:
xCas12i-E875R = biological target: T1, xCas12i-E875R (E875R); experiment: cell_activity; RuvC catalytic residue; cleavage readout; details: tags: NLS
T1 chain: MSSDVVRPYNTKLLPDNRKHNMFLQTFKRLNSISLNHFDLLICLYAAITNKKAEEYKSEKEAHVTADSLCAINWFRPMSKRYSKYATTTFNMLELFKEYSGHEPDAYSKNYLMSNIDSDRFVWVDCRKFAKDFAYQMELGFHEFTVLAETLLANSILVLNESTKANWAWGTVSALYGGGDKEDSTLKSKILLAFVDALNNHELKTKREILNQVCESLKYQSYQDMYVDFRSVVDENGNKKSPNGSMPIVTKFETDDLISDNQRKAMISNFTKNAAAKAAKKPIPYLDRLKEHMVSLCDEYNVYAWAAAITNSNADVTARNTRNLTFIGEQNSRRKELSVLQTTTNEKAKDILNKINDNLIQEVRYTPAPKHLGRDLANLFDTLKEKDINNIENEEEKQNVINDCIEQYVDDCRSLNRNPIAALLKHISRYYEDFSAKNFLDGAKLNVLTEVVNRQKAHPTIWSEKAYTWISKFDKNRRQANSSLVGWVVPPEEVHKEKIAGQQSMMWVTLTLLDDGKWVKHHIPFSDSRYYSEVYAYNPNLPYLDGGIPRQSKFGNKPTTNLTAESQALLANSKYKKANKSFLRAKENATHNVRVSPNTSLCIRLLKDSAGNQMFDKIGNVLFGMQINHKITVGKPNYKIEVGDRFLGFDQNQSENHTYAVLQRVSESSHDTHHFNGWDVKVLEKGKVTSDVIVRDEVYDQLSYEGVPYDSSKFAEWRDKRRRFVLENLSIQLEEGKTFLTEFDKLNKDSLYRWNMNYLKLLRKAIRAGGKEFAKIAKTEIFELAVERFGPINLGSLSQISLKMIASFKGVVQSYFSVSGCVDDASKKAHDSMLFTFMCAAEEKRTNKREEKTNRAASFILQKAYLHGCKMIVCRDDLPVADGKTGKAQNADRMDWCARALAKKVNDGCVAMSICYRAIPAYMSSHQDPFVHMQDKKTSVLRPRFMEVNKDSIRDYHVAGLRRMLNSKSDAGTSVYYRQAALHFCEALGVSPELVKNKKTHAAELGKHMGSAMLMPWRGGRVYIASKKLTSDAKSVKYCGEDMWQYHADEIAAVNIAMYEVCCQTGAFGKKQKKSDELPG
Source text: (§1) To vary xCas12i's dsDNA cleavage activity and/or expand its scope of PAM site recognition, the applicant engineered xCas12i protein via mutagenesis and screened for mutants with various dsDNA cleavage activity and broader PAM using a dual plasmid fluorescent reporter system similar to the dual plasmid fluorescent reporter system in Example 1, except that the EGxxxxFP-targeting guide RNA (SEQ ID NO: 51; “crON/crRNA On-target”) coding sequence operably linked to U6 promoter was not located on the expression plasmid together with the xCas12i (or its mutant) coding sequence (SEQ ID NO: 31) but located on the reporter plasmid together with the BFP-P2A-EGxxxxFP coding sequence (SEQ ID NO: 41) (referring to “On-Target Reporter” in FIG. 1B). […] The applicant then individually transfected the expression plasmid and the reporter plasmid into HEK293T cells and analyzed them by FACS (FIG. 1B). […]

xCas12i-D892R (v4.3) = biological target: T2, xCas12i-D892R (v4.3) (D892R); experiment: cell_activity; HEK293T EGFP reporter; details: tags: NLS
T2 chain: T1 chain with R875E, D892R
Source text: as §1

B1: crEGFP DR-T1 ; EGxxxxFP reporter target (ssRNA ; dsDNA)
RNA: AUGACUCAGAAAUGUGUCCCCAGUUGACACCCAUUACAGUAGGAGCAUAC
DNA 1: GGATCCGTGTCTTTCCCATTACAGTAGGAGCATACGGGAGACAAGCTTTG
DNA 2: CAAAGCTTGTCTCCCGTATGCTCCTACTGTAATGGGAAAGACACGGATCC
Q: Which binding signal (xCas12i-E875R) does the source give for B1 here?
A: 0.1 relative to WT

Q: What about the binding signal (xCas12i-D892R (v4.3)) of the same binder?
A: 1.42 relative to WT

Reference: US20250283063, “NOVEL CRISPR-CAS12I SYSTEMS AND USES THEREOF” (HUIDAGENE THERAPEUTICS (SINGAPORE) PTE. LTD., published 2025)
